Molecular target: CD38 (UniProt P28907 1-300, limits assumed)
Assay: cell-based or functional assay

B1: daratumumab (antibody, V domains shown)
VH: EVQLLESGGGLVQPGGSLRLSCAVSGFTFNSFAMSWVRQAPGKGLEWVSAISGSGGGTYYADSVKGRFTISRDNSKNTLYLQMNSLRAEDTAVYFCAKDKILWFGEPVFDYWGQGTLVTVSS
VL: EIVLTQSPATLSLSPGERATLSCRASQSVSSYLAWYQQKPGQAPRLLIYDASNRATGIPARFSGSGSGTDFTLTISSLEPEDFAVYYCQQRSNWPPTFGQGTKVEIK
- fold reduction of CD38+ T cell counts in co-cultures with daratumumab against the control condition: ~15 fold
- fold reduction of CD38+ pbNK cell counts in co-cultures with daratumumab against the control condition: ~21 fold
